Measurements taken from US9259432B1, “Composition and methods for targeted delivery of a therapeutic compound to the brain or spinal cord of a subject for treatment of neurodegenerative diseases” (Parminder J. S. Vig, priority 2011, dated 2016).

Assays:
Format in all cases: cell-based
[1] = test system: differentiated GFP-ATXN1[82Q] SHSY5Y cells; assay: Oxyblot of S100B induced oxidized proteins; settings: 5 μM S100B 2 hrs; compared to GFP-ATXN1[30Q] cells
Protocol: FIG. 16: (a) GFP-ATXN1[82Q] and (b) GFP-ATXN1[30Q] SHSY5Y stable cells were placed on 12-well plates and subjected to treatment with 25 nM TPA for 3 days to produce differentiated SHSY5Y cell lines. Next, the cells were pretreated with 50 μM Synb1-ELP-TRTK for 1 hr then treated with 5 μM S100B for 2 hrs or treated with 150 μM H2O2 for 2 hrs, where control cells were treated with serum free media for 3 hrs. Then the cells were lysed and analyzed with the Oxyblot kit and a β-tubulin antibody. Shown is the resulting oxyblot/western blot data. (c) Optical densities of the protein bands were taken using ImageJ software. Graphs shown the ratio of oxidized protein/β-tubulin protein normalized to the control. Statistics were taken using the student's t-test. * GFP-ATXN1[82Q]: S100B vs Synb1-ELP-TRTK+S100B, P<0.05. ψ GFP-ATXN1[82Q]: H2O2 vs GFP-ATXN1[30Q]: H2O2, P<0.05.
GFP-ATXN1[82Q] or GFP-ATXN1[30Q] stable cells were placed on 12-well plates at a concentration of 60,000 cells per well. Cells were treated with 25 nM TPA for 3 days to produce differentiated SHSY5Y cell lines. […] Cell lysates were analyzed with the Oxyblot kit according to manufacturer's protocol ([…]) and with a β-tubulin antibody (Sigma), where 5 μgs of protein was loaded in each well of 4-20% acrylamide gel (Bio-Rad Laboratories, Hercules, Calif., USA). […]

[2] = test system: differentiated GFP-ATXN1[82Q] SHSY5Y cells; assay: Neurite changes after S100B treatment, mutant ataxin-1 cells; settings: 3.0 μM S100B 48 hrs, vs untreated
Protocol: FIG. 15: GFP-ATXN1[82Q] SHSY5Y stable cells were placed on 2-well slides and subjected to treatment with 25 nM TPA for 3 days to produce differentiated SHSY5Y cells. Next, slides were fixed and probed with (a &b) GFP, (a) Synaptophycin and (b) RAGE antibodies and fluorescent secondary antibodies Alexa 488 and Alexa 546 followed by DAPI staining. Scale Bars: […]. Differentiated SHSY5Y cells were treated with 3.0 μM S100B for 48 hrs and neurite changes were visualized under the microscope. (c) Data is shown as MEAN±STDEV of the percentage of cells with neurites, n=100. (d) Data is shown as MEAN±SE of neurite length, n=100. Statistics were taken using student's t-test. *P<0.05.
SHSY5Y cells (Invitrogen, Carlsbad, Calif., USA) were maintained in DMEM/F12 media (Fisher, Houston, Tex., USA) supplemented with 15% FBS, penicillin-streptomycin (Sigma), and grown in an incubator at 37° C. in the presence of 5% CO2. S100B was labeled with Alexa 488 labeling kit (Invitrogen) to produce 488-S100B. […] Next, cells were washed then treated with 1 μM 488-S100B for 3 hrs and S100B uptake was analyzed by Epi-fluorescence or by Beckman Cytometric FC 500 flow cytometer as previously described (Bidwell et al., 2009). For flow cytometry experiments, 488-S100B uptake was measured by quenching extracellular fluorescence by coating the cells with Trypan Blue (Fisher) as described previously (Bidwell et al., 2009). […]

[3] = test system: differentiated GFP-ATXN1[30Q] SHSY5Y cells; assay: Neurite changes after S100B treatment, normal ataxin-1 cells; settings: 3.0 μM S100B 48 hrs, vs untreated

B1: S100B: glial secreted EF-hand calcium binding protein, purchased from Sigma-Aldrich; applied to cells as neurotoxic stimulus (protein, UniProt P04271 2-92, looked up)
Protein S100-B: SELEKAMVALIDVFHQYSGREGDKHKLKKSELKELINNELSHFLEEIKEQEVVDKVMETLDNDGDGECDFQEFMAFVAMVTTACHEFFEHE
- level of oxidized proteins after S100B treatment [1]: greater level of oxidized proteins
- neurite length [2]: significantly reduced
- percentage of cells with neurites [2]: significant reduction
- effect on neurites (percentage of cells with neurites, neurite length) [3]: no significant effect
